Measurements published in article PMC12139721.

Target: CUL5-RBX2 (human | mouse) (UniProt Q93034)
Test: SEC + native MS

UniProt Q93034, sequence (Q93034 whole entry, chain 1 of 2): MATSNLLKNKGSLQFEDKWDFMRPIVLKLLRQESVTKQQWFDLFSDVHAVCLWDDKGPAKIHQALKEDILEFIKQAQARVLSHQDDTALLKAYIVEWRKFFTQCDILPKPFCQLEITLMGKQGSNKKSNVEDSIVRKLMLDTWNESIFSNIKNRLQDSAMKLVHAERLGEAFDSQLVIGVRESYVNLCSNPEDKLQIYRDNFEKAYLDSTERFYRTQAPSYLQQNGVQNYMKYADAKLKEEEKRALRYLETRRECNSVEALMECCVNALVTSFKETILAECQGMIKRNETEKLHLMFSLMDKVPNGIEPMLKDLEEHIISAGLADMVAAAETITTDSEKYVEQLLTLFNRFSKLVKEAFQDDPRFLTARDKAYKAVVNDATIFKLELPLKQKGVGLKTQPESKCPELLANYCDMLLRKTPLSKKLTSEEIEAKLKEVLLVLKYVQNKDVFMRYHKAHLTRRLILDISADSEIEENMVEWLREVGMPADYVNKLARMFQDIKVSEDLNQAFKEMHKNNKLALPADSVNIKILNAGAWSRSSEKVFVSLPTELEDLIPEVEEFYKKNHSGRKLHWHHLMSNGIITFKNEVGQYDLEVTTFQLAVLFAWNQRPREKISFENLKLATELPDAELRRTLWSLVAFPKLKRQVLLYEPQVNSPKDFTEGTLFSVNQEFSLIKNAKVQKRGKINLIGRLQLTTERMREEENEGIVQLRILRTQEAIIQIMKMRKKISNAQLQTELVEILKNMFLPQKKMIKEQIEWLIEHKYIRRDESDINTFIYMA
UniProt Q93034, sequence (Q9WTZ1 whole entry, chain 2 of 2, further chain): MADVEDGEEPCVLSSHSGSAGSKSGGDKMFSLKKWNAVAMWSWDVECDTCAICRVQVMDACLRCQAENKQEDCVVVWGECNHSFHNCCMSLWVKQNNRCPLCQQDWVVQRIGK

- stoichiometry N: 1
Substance: PCMTD1-ELOBC (from UniProt Q96MG8;Q15370;Q15369) (complex)
